Experimental data taken from doi:10.1101/379156.

Experiments:
Assay in all cases: SEC
[1] = biological target: bimodular construct 25 (MAT-ACP didomain fused to full-length mFAS) (Mus musculus) (UniProt P19096)
[2] = biological target: mFAS alpha-module, construct 17 (KS-MAT-ACP, mFAS sequences only) (Mus musculus)
[3] = biological target: mFAS alpha-module, construct 22 (KS-MAT-ACP-TE, mFAS sequences only) (Mus musculus)
[4] = biological target: mFAS delta-module, construct 6 (2-2195) (Mus musculus) (UniProt P19096)
[5] = biological target: murine fatty acid synthase (mFAS) (Mus musculus) (UniProt P19096); conditions: remark: other sources report otherwise

Work on “bimodular construct 25 (MAT-ACP didomain fused to full-length mFAS) (from UniProt P19096 1-2504)” yielded a stoichiometry N [1] of 2.

Substance “mFAS alpha-module, construct 17 (KS-MAT-ACP, mFAS sequences only) (domain or fragment)” has a stoichiometry N [2] of 2.

In the case of “mFAS alpha-module, construct 22 (KS-MAT-ACP-TE, mFAS sequences only) (domain or fragment)”, the stoichiometry N [3] is reported as 2.

“mFAS delta-module, construct 6 (2-2195), P19096 2-2195” showed a stoichiometry N [4] of 2.

With “murine fatty acid synthase (mFAS), P19096 1-2504” the stoichiometry N [5] was 2.
